According to PMC8219380, “The discriminatory power of the T cell receptor” (eLife, 2021):
“And” between values parts separate entries of the source, which are not always exact repeats. Equal values may be shown once.

Key:
[1] = target: NY-ESO-1 (peptide variant NYE 5F) peptide on HLA-A*02:01 (human); test: SPR at 37°C, new method with Bmax constrained by the W6/32 standard curve; soluble, other
[2] = target: NY-ESO-1 (NYE 9V: heteroclitic variant of the wild-type NYE-ESO 157–165 9C peptide) peptide on HLA-A*02:01 (human); test: SPR at 37°C (Biacore T200), soluble 1G4 injected over immobilised biotinylated pMHC; standard method with fitted Bmax; Figure 1A–C left column, which the legend names NYE 9V; soluble, other
1G4 TCR = test: SPR, 1G4 TCR binding to immobilised pMHC (steady state, 37°C); design: species or system human; details: Bmax fitted, read-out: KD (standard protocol)
[3] = target: NYE 3A peptide on HLA-A*02:01; test: SPR
[4] = target: NYE 3Y peptide on HLA-A*02:01; test: SPR
[5] = target: NYE 4A peptide on HLA-A*02:01; test: SPR
[6] = target: NYE 5F peptide on HLA-A*02:01; test: SPR
[7] = target: NYE 5Y peptide on HLA-A*02:01; test: SPR
[8] = target: NYE 6T peptide on HLA-A*02:01; test: SPR
[9] = target: NYE 9V peptide on HLA-A*02:01; test: SPR
[10] = target: NYE 9V peptide on HLA-A*02:01 (pMHC); test: SPR
[11] = target: NYE 5F peptide on HLA-A*02:01; test: SPR; 37°C
[12] = target: NYE 5F peptide on HLA-A*02:01; test: SPR; Bmax fitted, 37°C
[13] = target: NYE 9V peptide on HLA-A*02:01; test: SPR; Bmax fitted, 37°C
[14] = target: NYE 5F peptide on HLA-A*02:01; test: SPR; Bmax constrained, 37°C
[15] = target: NYE 9V peptide on HLA-A*02:01; test: SPR; Bmax constrained, 37°C
[16] = target: Tax 1A peptide on HLA-A*02:01 (human | HTLV-1); test: SPR
[17] = target: Tax 1V peptide on HLA-A*02:01 (human | HTLV-1); test: SPR
[18] = target: Tax 4A peptide on HLA-A*02:01 (human | HTLV-1); test: SPR
[19] = target: Tax 4A8A peptide on HLA-A*02:01 (human | HTLV-1); test: SPR
[20] = target: Tax 5F peptide on HLA-A*02:01 (human | HTLV-1); test: SPR
[21] = target: Tax 5H peptide on HLA-A*02:01 (human | HTLV-1); test: SPR
[22] = target: Tax 5H8A peptide on HLA-A*02:01 (human | HTLV-1); test: SPR
[23] = target: Tax 5W peptide on HLA-A*02:01 (human | HTLV-1); test: SPR
[24] = target: Tax 6V peptide on HLA-A*02:01 (human | HTLV-1); test: SPR
[25] = target: Tax 7H peptide on HLA-A*02:01 (human | HTLV-1); test: SPR
[26] = target: Tax 7R peptide on HLA-A*02:01 (human | HTLV-1); test: SPR
[27] = target: Tax 7T peptide on HLA-A*02:01 (human | HTLV-1); test: SPR
[28] = target: Tax 8A peptide on HLA-A*02:01 (human | HTLV-1); test: SPR
[29] = target: Tax 8F peptide on HLA-A*02:01 (human | HTLV-1); test: SPR
[30] = target: Tax 5F peptide on HLA-A*02:01 (human | HTLV-1); test: SPR; 37°C
[31] = tested on: CD8+ T cell blasts expressing 1G4 TCR; test: TCR downregulation (tetramer gMFI), plate-bound pMHC + ICAM1; assay type: cell-based, human
Description: (§1) Figure 4. The T cell discriminatory power is enhanced by ligation of the receptors CD2 or LFA-1. (A) Protocol for stimulation of CD8^+ T cell blasts with plate-bound recombinant ligands. (B, C) Example dose-response curve for 1G4 T cell blasts stimulated with (B) peptides presented on major histocompatibility complex (pMHC) alone or (C) in combination with CD58 or ICAM1. (D, E) Potency derived from dose-response curves over KD showing the power function fit (D) with pMHC alone or (E) in combination with CD58 or ICAM1. (F) Comparison of the fitted discrimination power (α) and (G) fitted sensitivity ( C ). Shown are geometric means with each dot representing an independent experiment (n = 4–5). (F) In grey the result of a statistical test vs. 1 is shown (p=0.09 for pMHC, p=0.002 for CD58 and ICAM1, p=0.0002 for U87/1G4). Figure 4—source data 1. CD69 dose-response data for Figure 4. […]
(§2) For stimulation, T cells were counted, washed once to remove excess IL2, and 75,000 cells in 180–200 μl complete RMPI were dispensed per well. […] Cells were stained for flow cytometry and analysed immediately, or fixed and stored for up to 1 day. […]
(§3) Tetramers were produced in-house using refolded monomeric, biotinylated pMHC, and streptavidin-PE (Biolegend) at a 1:4 molar ratio. […] Samples were analysed using a BD X-20 flow cytometer, and data analysis was performed using FlowJo v10 (BD Biosciences).

[32] = tested on: CD8+ T cell blasts expressing 1G4 TCR; test: TCR downregulation (tetramer gMFI), plate-bound pMHC + CD58; assay type: cell-based, human
Description: as §1, §2, §3

## 1G4 TCR
[1]
  Kd: 1310 µM
[2]
  Kd: 7 µM

## NY-ESO-1 peptide: cognate NY-ESO-1 peptide of the 1G4 TCR
1G4 TCR
  Kd: ~7 µM

## soluble 1G4 αβ TCR
[3]; Bmax constrained (new method)
  Kd: 6.28 µM
[3]; Bmax fitted (standard method)
  Kd: 7.04 µM
[4]; Bmax constrained (new method)
  Kd: 47.3 µM
[4]; Bmax fitted (standard method)
  Kd: 36.3 µM
[5]; Bmax constrained (new method)
  Kd: 299 µM
[5]; Bmax fitted (standard method)
  Kd: 157 µM
[6]
  Kd: 756 µM
[7]; Bmax constrained (new method)
  Kd: 433 µM
[7]; Bmax fitted (standard method)
  Kd: 191 µM
[8]; Bmax constrained (new method)
  Kd: 162 µM
[8]; Bmax fitted (standard method)
  Kd: 84.6 µM
[9]; Bmax constrained (new method)
  Kd: 4.93 µM
[9]; Bmax fitted (standard method)
  Kd: 7.97 µM
[10]
  Kd: 7 µM
[11]
  Kd: 1310 µM
[12]
  Kd: 198 µM
[13]
  Kd: 6.8 µM
[14]
  Kd: 1590 µM
[15]
  Kd: 4.6 µM

## soluble A6 αβ TCR
[16]
  Kd: 4.25 µM and 6.5 µM
[17]
  Kd: 6.92 µM and 7.97 µM
[18]
  Kd: 72.5 µM and 118 µM
[19]
  Kd: 194 µM and 1870 µM
[20]
  Kd: 3.36 µM and 2.67 µM
[21]
  Kd: 36.2 µM and 56.1 µM
[22]
  Kd: 2820 µM and 2320 µM
[23]
  Kd: 6.08 µM and 5 µM
[24]
  Kd: 13.5 µM and 21.1 µM
[25]
  Kd: 45.8 µM and 67.8 µM
[26]
  Kd: 11.5 µM and 21.4 µM
[27]
  Kd: 3.42 µM and 2.8 µM
[28]
  Kd: 599 µM and 565 µM
[29]
  Kd: 37.1 µM and 60 µM
[30]
  Kd: 3 µM

B1: ICAM1: human ICAM1 ECD, a ligand of LFA-1 (protein, UniProt P05362 28-480, looked up)
extracellular domain: QTSVSPSKVILPRGGSVLVTCSTSCDQPKLLGIETPLPKKELLLPGNNRKVYELSNVQEDSQPMCYSNCPDGQSTAKTFLTVYWTPERVELAPLPSWQPVGKNLTLRCQVEGGAPRANLTVVLLRGEKELKREPAVGEPAEVTTTVLVRRDHHGANFSCRTELDLRPQGLELFENTSAPYQLQTFVLPATPPQLVSPRVLEVDTQGTVVCSLDGLFPVSEAQVHLALGDQRLNPTVTYGNDSFSAKASVSVTAEDEGTQRLTCAVILGNQSQETLQTVTIYSFPAPNVILTKPEVSEGTEVTVKCEAHPRAKVTLNGVPAQPLGPRAQLLLKATPEDNGRSFSCSATLEVAGQLIHKNQTRELRVLYGPRLDERDCPGNWTWPENSQQTPMCQAWGNPLPELKCLKDGTFPLPIGESVTVTRDLEGTYLCRARSTQGEVTRKVTVNVLSPRYE
modifications: extracellular domain
[31]
  TCR downregulation: increased TCR downregulation

B2: CD58: soluble extracellular domain of human CD58, the ligand to CD2 (protein, UniProt P19256 29-215, looked up)
extracellular domain: FSQQIYGVVYGNVTFHVPSNVPLKEVLWKKQKDKVAELENSEFRAFSSFKNRVYLDTVSGSLTIYNLTSSDEDEYEMESPNITDTMKFFLYVLESLPSPTLTCALTNGSIEVQCMIPEHYNSHRGLIMYSWDCPMEQCKRNSTSIYFKMENDLPQKIQCTLSNPLFNTTSSIILTTCIPSSGHSRHR
modifications: extracellular domain
notes: soluble extracellular domain of human CD58, the ligand to CD2
[32]
  TCR downregulation: increased TCR downregulation
